The target in the test is recombinant Syrian golden hamster proteinase K-sensitive prion protein (residues 23-231) (Syrian golden hamster) (UniProt Q60468). The test is described as follows: cell-based or functional assay.

Turning to “hamster proteinase K resistant prion protein (263K scrapie strain), purified from hamster brains or (from UniProt P04273 23-231)”, the amount of PrP^Sc seed detected, 4-hour QUIC at 65° C. is 100 fg; the amount of PrP^Sc seed detected, 8-hour QUIC at 55° C. is 10 fg; the amount of PrP^Sc seed detected, triplicate 18-hour QUIC at 55° C. amounted to 1 fg; the amount of PrP^Sc seed frequently positive, first 48-hour QUIC round was 25 to 50 ag. Moreover, the amount of PrP^Sc seed positive in one sample, second serial QUIC round came to 10 ag.
